Reference: paper PMC7382501 (Nature Communications, 2020)

Molecular target: the molecule itself
Assay: SEC

Protein	stoichiometry N
FasR from Mycobacterium tuberculosis, full-length (hexa-histidine-TEV-tagged construct, tag cleaved) (natural protein) MSDLAKTAQRRALRSSGSARPDEDVPAPNRRGNRLPRDERRGQLLVVASDVFVDRGYHAAGMDEIADRAGVSKPVLYQHFSSKLELYLAVLHRHVENLVSGVHQALSTTTDNRQRLHVAVQAFFDFIEHDSQGYRLIFENDFVTEPEVAAQVRVATESCIDAVFALISADSGLDPHRARMIAVGLVGMSVDCARYWLDADKPISKSDAVEGTVQFAWGGLSHVPLTRS	2
His-tagged FasR (FasRwt, from pET28_fasRH) (natural protein, not shown: His6, N-terminal, kept) MSDLAKTAQRRALRSSGSARPDEDVPAPNRRGNRLPRDERRGQLLVVASDVFVDRGYHAAGMDEIADRAGVSKPVLYQHFSSKLELYLAVLHRHVENLVSGVHQALSTTTDNRQRLHVAVQAFFDFIEHDSQGYRLIFENDFVTEPEVAAQVRVATESCIDAVFALISADSGLDPHRARMIAVGLVGMSVDCARYWLDADKPISKSDAVEGTVQFAWGGLSHVPLTRS	2
